Legend:
HEP3B = assay: Monolayer assay, 96h treatment, HEP3B; assay type: cell-based, human
Experimental: (§1) Monolayer Assay Propidium Iodid (PI). Cells were harvested from exponential phase cultures, counted and depending on the cell line 3.000 to 20.000 cells were plated in 96-well flat-bottom microtiter plates After a 24 h recovery period to allow cells to resume exponential growth, 10 μl of culture medium (four control wells/plate) or culture medium with the test compound were added by a liquid handling robotic system and treatment continued for four days. Compounds were applied in half-log increments at 10 concentrations in duplicate. Three independent experiments were performed. Cells were then washed with 200 μl PBS to remove dead cells followed by addition of 200 μl of a solution containing 7 μg/ml propidium iodide (PI) and 0.1% (v/v) Triton X-100. After an incubation period of 1-2 h at room temperature, fluorescence (FU) was measured using the Cytofluor 4000 microplate reader (excitation λ=530 nm, emission λ=620 nm) to quantify the amount of attached viable cells. Concentrations required for 50% inhibition of cell growth (IC50) were calculated by non-linear regression (log[conc. of inhibitor]versus response (% T/C)) using the analysis software GraphPad Prism®, Prism 5 for windows, version 5.01 (GraphPad Software Inc., CA).
CROMOC36—in vitro activity Human hepatocellular carcinoma cell lines IC50 values of CROMOC36 and Sorafenib, 96h treatment. […]

PANC1 = assay: Propidium iodide monolayer assay, PANC1; assay type: cell-based, human; conditions: PANC1, four days
Experimental: as §1, with “Concentrations required for 50% inhibition of cell growth (IC50) were calculated by non-linear regression (log[conc. of inhibitor]versus response (% T/C)) using the analysis software GraphPad Prism®, Prism 5 for windows, version 5.01 (GraphPad Software Inc., CA).” left out
CROMOC36—in vitro activity Human pancreatic carcinoma cell lines. […] Antitumor activity was assessed after four days of CROMOC36 treatment using a propidium iodide based monolayer proliferation assay. […]

[1] = system: HCT116 human colon carcinoma xenograft with null p53 (HCT116 p53−/−); assay: HCT116 p53-/- xenograft, single agent and combination with cisplatin or vincristine; assay type: in vivo, female athymic nude mice
Experimental: A study was conducted to evaluate the efficacy and tolerability of CROMOC36 against an HCT116 human colon carcinoma xenograft model with null p53 (HCT116 p53−/−) in female athymic nude mice. CROMOC36 was administered subcutaneously (s.c.) three times at intervals of two weeks (q14dx3) as a single agent or in combination with cisplatin (CDDP) at 4 mg/kg or vincristine (VCR) at 2 mg/kg which were both administered five times at intervals of one week (q7dx5). CROMOC36 was tested at 32 mg/kg or using a decreasing dosage of 32-16-16 mg/kg. CDDP and VCR were also administered as single agents to allow comparison of the efficacy of CROMOC36 with commonly used anticancer drugs. The dose and schedule of CDDP and VCR treatments remained the same when tested as single agents or in combination with CROMOC36. […] Efficacy was also evaluated by measuring the tumor growth delay (TGD) and the number of regression responses.

B1: CROMOC36: single chain PvuII endonuclease fused at its C-terminus to DDM36, PEGylated final product used in the Examples (protein)
chain: MSHPDLNKLLELWPHIQEYQDLALKHGINDIFQDNGGKLLQVLLITGLTVLPGREGNDAVDNAGQEYELKSINIDLTKGFSTHHHMNPVIIAKYRQVPWIFAIYRGIAIEAIYRLEPKDLEFYYDKWERKWYSDGHKDINNPKIPVKYVMEHGTKIYGSGGSGGSSHPDLNKLLELWPHIQEYQDLALKHGINDIFQDNGGKLLQVLLITGLTVLPGREGNDAVDNAGQEYELKSINIDLTKGFSTHHHMNPVIIAKYRQVPWIFAIYRGIAIEAIYRLEPKDLEFYYDKWERKWYSDGHKDINNPKIPVKYVMEHGTKIYGNSGSGKKKKKGKGSGLGSGKKKDPLGSGLGSGKKKKKGKGSGLGSGKKKDPLGST
modifications: PEGylated; peptide, CROMOC36
IC50 (HEP3B): 12.2 nM | IC50 (PANC1): ~10 nM | tumor growth inhibition ([1]; CROMOC36 32 mg/kg s.c. q14dx3, single agent): 82.9% | partial regression response ([1]; CROMOC36 32-16-16 mg/kg): one | tumor-free survivor ([1]; CROMOC36 32-16-16 mg/kg): one | tumor growth inhibition with respect to single-agent CROMOC36 ([1]; CROMOC36 32-16-16 mg/kg in combination with CDDP or VCR): did not change significantly | persistence of inhibitory effect ([1]; CROMOC36 32-16-16 mg/kg, single agent or in combination with CDDP or VCR, three weeks after the last treatment): persisted until day 50 | tumor growth inhibition ([1]; CROMOC36 decreasing 32-16-16 mg/kg s.c. q14dx3, single agent): 91.6% | % TGD (tumor growth delay) ([1]; endpoint tumor volume of 1000 mm^3, CROMOC36 as single agent or in combination): > 117% | time to study endpoint (TTE) ([1]; endpoint tumor volume of 1000 mm^3, control Day 23, CROMOC36 as single agent or in combination): > 50 days

— US20250295796A1, “CELL PENETRATING POLYPEPTIDES (CPPS) AND THEIR USE IN HUMAN THERAPY” (RDP PHARMA AG, priority 2021, published 2025)
